B1: C35S-hTRX (enzyme)
chain: MVKQIESKTAFQEALDAAGDKLVVVDFSATWCGPSKMIKPFFHSLSEKYSNVIFLEVDVDDCQDVASECEVKCMPTFQFFKKGQKVGEFSGANKEKLEATINELV
B2: IAA-treated hTRX (thiol-free variant) (enzyme)
chain: MVKQIESKTAFQEALDAAGDKLVVVDFSATWCGPCKMIKPFFHSLSEKYSNVIFLEVDVDDCQDVASECEVKCMPTFQFFKKGQKVGEFSGANKEKLEATINELV
modifications: all cysteine residues chemically modified with iodoacetamide
B3: C73S-hTRX (enzyme)
chain: MVKQIESKTAFQEALDAAGDKLVVVDFSATWCGPCKMIKPFFHSLSEKYSNVIFLEVDVDDCQDVASECEVKSMPTFQFFKKGQKVGEFSGANKEKLEATINELV
B4: C32/35S-hTRX (enzyme)
chain: MVKQIESKTAFQEALDAAGDKLVVVDFSATWSGPSKMIKPFFHSLSEKYSNVIFLEVDVDDCQDVASECEVKCMPTFQFFKKGQKVGEFSGANKEKLEATINELV
B5: C62S-hTRX (enzyme)
chain: MVKQIESKTAFQEALDAAGDKLVVVDFSATWCGPCKMIKPFFHSLSEKYSNVIFLEVDVDDSQDVASECEVKCMPTFQFFKKGQKVGEFSGANKEKLEATINELV
B6: C69S-hTRX (enzyme)
chain: MVKQIESKTAFQEALDAAGDKLVVVDFSATWCGPCKMIKPFFHSLSEKYSNVIFLEVDVDDCQDVASESEVKCMPTFQFFKKGQKVGEFSGANKEKLEATINELV
B7: C62/69S-hTRX (enzyme)
chain: MVKQIESKTAFQEALDAAGDKLVVVDFSATWCGPCKMIKPFFHSLSEKYSNVIFLEVDVDDSQDVASESEVKCMPTFQFFKKGQKVGEFSGANKEKLEATINELV

This assay deals with human protein arginine deiminase 4 (PAD4) (human) (UniProt Q9UM07).
Sequence of UniProt Q9UM07 (Q9UM07 whole entry): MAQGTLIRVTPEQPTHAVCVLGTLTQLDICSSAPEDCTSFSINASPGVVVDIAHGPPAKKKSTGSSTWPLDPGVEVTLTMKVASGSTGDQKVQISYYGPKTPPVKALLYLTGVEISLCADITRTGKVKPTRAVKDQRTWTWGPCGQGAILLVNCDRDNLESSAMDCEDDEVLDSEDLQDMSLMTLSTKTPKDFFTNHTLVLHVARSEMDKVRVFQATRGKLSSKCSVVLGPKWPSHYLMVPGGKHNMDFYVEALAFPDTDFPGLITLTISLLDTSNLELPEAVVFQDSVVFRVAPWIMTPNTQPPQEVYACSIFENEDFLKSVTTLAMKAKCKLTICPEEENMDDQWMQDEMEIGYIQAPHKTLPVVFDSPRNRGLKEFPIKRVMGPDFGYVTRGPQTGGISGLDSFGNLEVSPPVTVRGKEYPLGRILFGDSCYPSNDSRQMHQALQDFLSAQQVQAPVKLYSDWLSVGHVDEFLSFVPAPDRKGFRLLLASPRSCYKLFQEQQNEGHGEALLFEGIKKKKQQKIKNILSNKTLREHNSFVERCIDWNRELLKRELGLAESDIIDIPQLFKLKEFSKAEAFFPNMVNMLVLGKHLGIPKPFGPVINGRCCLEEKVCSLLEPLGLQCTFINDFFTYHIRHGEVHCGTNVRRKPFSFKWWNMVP
B1 showed a K d(app): hTRX concentration (0-10 uM) giving half-maximal activation of PAD4 (citrullination of BAEE) of 1170 nM.
For the molecule B2, the K d(app): hTRX concentration (0-10 uM) giving half-maximal activation of PAD4 (citrullination of BAEE) was determined as 620 nM.
Molecule B3 registered a K d(app): hTRX concentration (0-10 uM) giving half-maximal activation of PAD4 (citrullination of BAEE) of 780 nM.
For the molecule B4, the K d(app): hTRX concentration (0-10 uM) giving half-maximal activation of PAD4 (citrullination of BAEE) was 440 nM.
With B5, the K d(app): hTRX concentration (0-10 uM) giving half-maximal activation of PAD4 (citrullination of BAEE) worked out at 1140 nM.
B6 registered a K d(app): hTRX concentration (0-10 uM) giving half-maximal activation of PAD4 (citrullination of BAEE) of 1380 nM.
For the molecule B7, the K d(app): hTRX concentration (0-10 uM) giving half-maximal activation of PAD4 (citrullination of BAEE) worked out at 610 nM.

The record behind these values is publication PMC6396667.
